{
  "source": "patent US9784749",
  "binders": {"B1": {"name": "Synthetic human Troponin T upstream open reading frame (TnTuORF) peptide (peptide)", "peptide": "MAPEGWVIVVIS"}},
  "key": {"[1]": {"molecular_target": "r244 rabbit anti-human TnTuORF antiserum", "assay": "competitive radioimmunoassay, TnTuORF standard against 125I-TnTuORF(Tyr) tracer for r244"}, "[2]": {"molecular_target": "r244 rabbit anti-human TnTuORF antiserum", "assay": "competitive radioimmunoassay with r244 and 125I-TnTuORF(Tyr) tracer"}},
  "data": [
    {"binder": "B1", "values": [
      {"measurement": "ED50", "setting": "[1]", "value": 458, "unit": "ng/mL"},
      {"measurement": "Cross reactivity with TnTuORF antiserum (%)", "setting": "[2]", "value": 100, "unit": "%"}
    ]}
  ]
}
